Measurements published in US20090311283A1.
Where two headings read alike, the source gives them in different places.

How the values were obtained:
[1] = molecular target: HLA-A*0301 (human); assay: competition with 125I-labelled probe peptide for purified HLA-A*0301, gel filtration; relative binding against the standard peptide; conditions: scale: ratio
[2] = molecular target: HLA-A*3101 (human); assay: competitive inhibition of 125I-labelled probe peptide binding to purified HLA; relative to standard peptide
[3] = molecular target: HLA-A*1101 (human); assay: as above
[4] = molecular target: HLA-A*0301 (human); assay: as above
[5] = molecular target: HLA-A*3301 (human); assay: as above
[6] = molecular target: HLA-A*3101 (Human); conditions: remark: other sources report otherwise
[7] = molecular target: HLA-A*0301 (human); assay: inhibition of binding of a 125I-labelled probe peptide to purified HLA-A*0301, gel filtration; relative to the standard peptide
[8] = molecular target: HLA-A*3101 (human); assay: competition with 125I probe peptide on purified HLA-A*3101; relative to standard peptide 941.12
[9] = molecular target: HLA-A*1101 (human)
[10] = molecular target: HLA-A*3301 (human)
[11] = molecular target: HLA-A*6801 (human); assay: competition with 125I probe peptide on purified HLA-A*6801; relative to standard peptide 941.12
[12] = molecular target: HLA-A*0301 (human); assay: competition with 125I probe peptide on purified HLA-A*0301; relative to standard peptide 941.12
[13] = molecular target: HLA-A*6801 (human); assay: competition with 125I-labelled probe peptide for purified HLA-A*6801, gel filtration; ratio to standard peptide 941.12
[14] = molecular target: T1, HLA-DRB1*0701 (human); assay: inhibition of 125I-labelled probe peptide binding to purified HLA-DR; gel filtration; conditions: remark: other sources report otherwise
T1 chain 1: not shown
T1 chain 2: not shown

[15] = molecular target: T2, HLA-DRB1*0101 (human); assay: as above; conditions: remark: other sources report otherwise
T2 chain 1: not shown
T2 chain 2: not shown

[16] = molecular target: T3, HLA-DRB1*0401 (human); assay: as above; conditions: remark: other sources report otherwise
T3 chain 1: not shown
T3 chain 2: not shown

[17] = molecular target: HLA-A*3101 (human); assay: competition with 125I-labelled probe peptide for purified HLA-A*3101, gel filtration; ratio to standard peptide 941.12
[18] = molecular target: HLA-B*5401 (Human); assay: competition with 125I-labelled probe peptide for purified HLA, gel filtration
[19] = molecular target: HLA-B*3501 (Human); assay: as above
[20] = molecular target: HLA-B*5101 (Human); assay: as above
[21] = molecular target: HLA-B*0702 (Human); assay: as above

TDNSVVLSRK (modifications not checked) [HBV POL 736 peptide …]
binding affinity ratio (relative to standard peptide) [1]: 0.0006

NLEDPASR (modifications not checked) [HBV NUC 75 peptide NLEDPASR]
binding affinity ratio (IC50 of standard peptide / IC50 of test peptide) [2]: -0.0009
binding affinity ratio (IC50 of standard peptide / IC50 of test peptide) [3]: -0.0002
binding affinity ratio (IC50 of standard peptide / IC50 of test peptide) [4]: -0.0002
binding affinity ratio (IC50 of standard peptide / IC50 of test peptide) [5]: -0.0009

LTVNEKRR (modifications not checked) [HBV POL 99 peptide LTVNEKRR]
binding affinity ratio (IC50 of standard peptide / IC50 of test peptide) [2]: -0.0009
binding affinity ratio (IC50 of standard peptide / IC50 of test peptide) [3]: -0.0002
binding affinity ratio (IC50 of standard peptide / IC50 of test peptide) [4]: -0.0002
binding affinity ratio (IC50 of standard peptide / IC50 of test peptide) [5]: -0.0009

SSAGPCALR (modifications not checked) [Peptide 26.0153 (HBV X 64, …)]
IC50 [6]: 55 nM

HLNPNKTKR (modifications not checked) [HBV POL 569 peptide …]
binding affinity ratio (IC50 of standard peptide / IC50 of test peptide) [4]: 0.0025

SSAGPCALRF (modifications not checked) [HBV X 64 peptide …]
binding affinity ratio (IC50 of standard peptide / IC50 of test peptide) [7]: -0.0003

RTPSPRRR (modifications not checked) [HBV NUC 188 peptide RTPSPRRR]
binding affinity ratio (IC50 standard peptide / IC50 test peptide) [8]: 0.0033
binding affinity ratio (IC50 of standard peptide / IC50 of test peptide) [7]: -0.0002
binding affinity ratio (IC50 standard peptide / IC50 test peptide) [9]: -0.0002
binding affinity ratio (IC50 standard peptide / IC50 test peptide) [10]: 0.0014
binding affinity ratio (IC50 standard peptide / IC50 test peptide) [11]: 0.0002
binding affinity ratio (IC50 standard peptide / IC50 test peptide) [12]: -0.0002

PLTVNEKRR (modifications not checked) [HBV POL 98 peptide …]
binding affinity ratio (IC50 of standard peptide / IC50 of test peptide) [13]: 0.0002
binding affinity ratio (IC50 of standard peptide / IC50 of test peptide) [9]: 0.0005
binding affinity ratio (IC50 of standard peptide / IC50 of test peptide) [10]: 0.0027

HLSLRGLPVCAFSSA (modifications not checked) [… (HBV X 52, 15-mer)]
binding affinity ratio (IC50 of standard peptide / IC50 of test peptide) [14]: 0.013
binding affinity ratio (IC50 of standard peptide / IC50 of test peptide) [15]: 1.3
binding affinity ratio (IC50 of standard peptide / IC50 of test peptide) [16]: 0.0028

PLTVNEKR (modifications not checked) [HBV POL 98 peptide PLTVNEKR]
binding affinity ratio (IC50 of standard peptide / IC50 of test peptide) [17]: -0.0009
binding affinity ratio (IC50 of standard peptide / IC50 of test peptide) [13]: 0.0001
binding affinity ratio (IC50 of standard peptide / IC50 of test peptide) [9]: -0.0002
binding affinity ratio (IC50 of standard peptide / IC50 of test peptide) [10]: -0.0009

PLSYQHFRK (modifications not checked) [HBV POL 2 peptide …]
binding affinity ratio (IC50 of standard peptide / IC50 of test peptide) [17]: 0.0006
binding affinity ratio (IC50 of standard peptide / IC50 of test peptide) [13]: 0.0002
binding affinity ratio (IC50 of standard peptide / IC50 of test peptide) [9]: 0.0031

SALNPADDPSR (modifications not checked) [HBV POL 771 peptide …]
binding affinity ratio (IC50 standard peptide / IC50 test peptide) [8]: -0.0012
binding affinity ratio (IC50 of standard peptide / IC50 of test peptide) [7]: -0.0004
binding affinity ratio (IC50 standard peptide / IC50 test peptide) [9]: -0.0003
binding affinity ratio (IC50 standard peptide / IC50 test peptide) [10]: -0.0023
binding affinity ratio (IC50 standard peptide / IC50 test peptide) [11]: 0.0003
binding affinity ratio (IC50 standard peptide / IC50 test peptide) [12]: -0.0004

SPEHCSPHHTA (modifications not checked) [HBV NUC 44 peptide …]
binding affinity ratio (IC50 of standard peptide / IC50 of test peptide) [18]: 0.0011
binding affinity ratio (IC50 of standard peptide / IC50 of test peptide) [19]: 0.0001
binding affinity ratio (IC50 of standard peptide / IC50 of test peptide) [20]: 0.0001

PPAYRPPNAPI (modifications not checked) [HBV NUC 129 peptide …]
binding affinity ratio (IC50 of standard peptide / IC50 of test peptide) [18]: 0.0001
binding affinity ratio (IC50 of standard peptide / IC50 of test peptide) [19]: 0.0001
binding affinity ratio (IC50 of standard peptide / IC50 of test peptide) [21]: 0.0003
binding affinity ratio (IC50 of standard peptide / IC50 of test peptide) [20]: 0.0001

GIHLNPNKTK (modifications not checked) [HBV POL 567 peptide …]
binding affinity ratio (IC50 of standard peptide / IC50 of test peptide) [2]: 0.0009
binding affinity ratio (IC50 of standard peptide / IC50 of test peptide) [3]: 0.0011
binding affinity ratio (IC50 of standard peptide / IC50 of test peptide) [4]: 0.0025
binding affinity ratio (IC50 of standard peptide / IC50 of test peptide) [5]: 0.0009
